The source of these data is paper PMC4663627.

The target in the data set is T1, p19 (GST-p19) (Cymbidium ringspot virus (CymRSV)) (UniProt P17457).
T1 sequence: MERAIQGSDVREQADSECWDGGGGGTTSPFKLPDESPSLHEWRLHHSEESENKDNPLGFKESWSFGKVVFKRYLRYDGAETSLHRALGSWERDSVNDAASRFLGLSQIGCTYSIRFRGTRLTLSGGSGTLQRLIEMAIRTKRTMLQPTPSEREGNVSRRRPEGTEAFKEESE
Nature of the data set: SiNW-FET conductance, Langmuir fit. As to conditions: phosphate solution (240 uM NaH2PO4, 760 uM Na2HPO4), pH 7.4, Debye length 6.1 nm, temperature not given.

Broadly, the Kd is the free concentration of one partner at which half of the binding sites on the other are occupied at equilibrium, for simple one-to-one binding. High values mean weaker binding, low ones tighter binding.

For the setting “5'-phosphate”, “CGUACGCGGAAUACUUCGAUU / UCGAAGUAUUCCGCGUACGUU [ds-sRNA-0]” had a Kd of 16 nM.
As to “GCGACGCGGAAUACUUCGAUU / UCGAAGUAUUCCGCGUACGUU [ds-sRNA-2]”, the dissociation constant (Kd) amounted to 227 nM.
“GCGACGCGGAAUACUUGCUUU / UCGAAGUAUUCCGCGUACGUU [ds-sRNA-3]” returned a Kd of 1140 nM.
